Data from US20240209106A1 (BEIGENE SWITZERLAND, published 2024).

Key:
[1] = molecular target: T1, full-length human CD137 (huCD137) (human, UniProt Q07011 24-255); assay: flow cytometry on Hut78/huCD137 cells
T1 construct: On transduced Hut78 cells (Hut78/huCD137), transiently on HEK293 cells, or natively on PBMC/T cells; also called TNFRSF9; 4-1BB

human CD137 ECD-mIgG2a = human CD137 ECD-mIgG2a (human); assay: SPR, antibody captured on anti-human Fc surface; analyte taken as human CD137 ECD-mIgG2a
[2] = molecular target: T1, full-length human CD137 (huCD137); assay: cell-based or functional assay

human CD137 ECD-mIgG2a (human), sequence (chain, as listed by the source limits assumed): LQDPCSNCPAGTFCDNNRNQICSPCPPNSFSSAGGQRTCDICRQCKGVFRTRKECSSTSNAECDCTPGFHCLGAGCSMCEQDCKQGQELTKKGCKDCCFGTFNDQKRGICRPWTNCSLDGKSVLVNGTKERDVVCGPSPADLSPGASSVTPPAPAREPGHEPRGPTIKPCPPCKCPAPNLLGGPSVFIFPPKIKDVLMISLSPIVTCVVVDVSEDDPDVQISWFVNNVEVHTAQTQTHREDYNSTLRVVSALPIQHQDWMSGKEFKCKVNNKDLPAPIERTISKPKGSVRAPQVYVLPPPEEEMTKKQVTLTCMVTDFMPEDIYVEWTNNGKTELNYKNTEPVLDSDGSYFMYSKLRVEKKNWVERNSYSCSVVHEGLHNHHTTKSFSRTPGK
T1 sequence (Q07011 24-255 limits assumed): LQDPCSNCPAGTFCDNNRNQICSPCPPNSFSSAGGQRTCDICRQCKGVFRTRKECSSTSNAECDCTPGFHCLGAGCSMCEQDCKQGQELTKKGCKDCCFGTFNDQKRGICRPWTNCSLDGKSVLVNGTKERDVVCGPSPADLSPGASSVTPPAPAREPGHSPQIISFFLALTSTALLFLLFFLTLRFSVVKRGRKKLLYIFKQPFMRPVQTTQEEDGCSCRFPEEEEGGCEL

Binder	binding result [1]	Kd (human CD137 ECD-mIgG2a)	koff (human CD137 ECD-mIgG2a)	kon (human CD137 ECD-mIgG2a)	Functional assay EC50 (ug/ml), in vitro CD137 activation (PBMC cytokine release) [2]	EC50 (read off the curve) [1]
BE-244 (A-(G4S)3-BGA-5623) (bispecific antibody, human IgG1, kappa) heavy: QVQLVQSGAEVKKPGASVKVSCKASGYIFTSYYLHWVRQAPGQGLEWIGYINPQTGKTSYAQKFQGRVTMTRDTSTSTVYMELSSLRSEDTAVYYCAREYGNYNYPLDYWGQGTLVTVSSASTKGPSVFPLAPSSKSTSGGTAALGCLVKDYFPEPVTVSWNSGALTSGVHTFPAVLQSSGLYSLSSVVTVPSSSLGTQTYICNVNHKPSNTKVDKKVEPKSCDKTHTCPPCPAPPAAGPSVFLFPPKPKDTLMISRTPEVTCVVVDVSHEDPEVKFNWYVDGVEVHNAKTKPREEQYNSTYRVVSVLTVLHQDWLNGKEYKCKVSNKALAAPIEKTISKAKGQPREPQVYTLPPSREEMTKNQVSLTCLVKGFYPSDIAVEWESNGQPENNYKTTPPVLDSDGSFFLYSKLTVDKSRWQQGNVFSCSVMHEALHNHYTQKSLSLSPGKGGGGSGGGGSGGGGSEVQLLESGGGLVQPGGSLRLSCAASGFTVSAEDVGWVRQAPGKGLEWVSAILDKGGSTYYAESVKGRFTISRDNAKNTLYLQMSSLRAEDTAVYYCARIVYHAGGGVTFDTRGQGTQVTVSS light: DIQMTQSPSSLSASVGDRVTITCRASENQYGYLAWYQQKPGKVPKLLIYNYKNLVEGVPSRFSGSGSGTDFTLTISSLQPEDVATYYCQHHLGTPYTFGQGTKVEIKRTVAAPSVFIFPPSDEQLKSGTASVVCLLNNFYPREAKVQWKVDNALQSGNSQESVTEQDSKDSTYSLSSTLTLSKADYEKHKVYACEVTHQGLSSPVTKSFNRGEC	–	–	–	–	0.18 µg/mL	–
BE-562 (E-muFc-BGA-5623) (bispecific antibody) heavy: EVQLLESGGGLVQPGGSLRLSCAASGFTVSAEDVGWVRQAPGKGLEWVSAILDKGGSTYYAESVKGRFTISRDNAKNTLYLQMSSLRAEDTAVYYCARIVYHAGGGVTFDTRGQGTQVTVSSEPKSSDKTHTCPPCPAPPAAGPSVFLFPPKPKDTLMISRTPEVTCVVVDVSHEDPEVKFNWYVDGVEVHNAKTKPREEQYNSTYRVVSVLTVLHQDWLNGKEYKCKVSNKALAAPIEKTISKAKGQPREPQVYTLPPSREEMTKNQVSLTCLVKGFYPSDIAVEWESNGQPENNYKTTPPVLDSDGSFFLYSKLTVDKSRWQQGNVFSCSVMHEALHNHYTQKSLSLSPGKGGGGSQVQLVQSGAEVKKPGASVKVSCKASGYIFTSYYLHWVRQAPGQGLEWIGYINPQTGKTSYAQKFQGRVTMTRDTSTSTVYMELSSLRSEDTAVYYCAREYGNYNYPLDYWGQGTLVTVSSASTKGPSVFPLAPSSKSTSGGTAALGCLVKDYFPEPVTVSWNSGALTSGVHTFPAVLQSSGLYSLSSVVTVPSSSLGTQTYICNVNHKPSNTKVDKKVEPKSCD light: DIQMTQSPSSLSASVGDRVTITCRASENQYGYLAWYQQKPGKVPKLLIYNYKNLVEGVPSRFSGSGSGTDFTLTISSLQPEDVATYYCQHHLGTPYTFGQGTKVEIKRTVAAPSVFIFPPSDEQLKSGTASVVCLLNNFYPREAKVQWKVDNALQSGNSQESVTEQDSKDSTYSLSSTLTLSKADYEKHKVYACEVTHQGLSSPVTKSFNRGEC	–	–	–	–	4.69 µg/mL	–
BE-375 (E-IgG1-BGA-5623) (bispecific antibody) heavy: not shown light: DIQMTQSPSSLSASVGDRVTITCRASENQYGYLAWYQQKPGKVPKLLIYNYKNLVEGVPSRFSGSGSGTDFTLTISSLQPEDVATYYCQHHLGTPYTFGQGTKVEIKRTVAAPSVFIFPPSDEQLKSGTASVVCLLNNFYPREAKVQWKVDNALQSGNSQESVTEQDSKDSTYSLSSTLTLSKADYEKHKVYACEVTHQGLSSPVTKSFNRGEC	–	–	–	–	1.76 µg/mL	–
A-CD137×CEA-M2 (bispecific antibody, V35M as printed) heavy: QVQLVQSGAEVKKPGASVKVSCKASGYIFTSYYLHWVRQAPGQGLEWIGYINPQTGKTSYAQKFQGRVTMTRDTSTSTVYMELSSLRSEDTAVYYCAREYGNYNYPLDYWGQGTLVTVSSASTKGPSVFPLAPSSKSTSGGTAALGCLVKDYFPEPVTVSWNSGALTSGVHTFPAVLQSSGLYSLSSVVTVPSSSLGTQTYICNVNHKPSNTKVDKKVEPKSCDKTHTCPPCPAPPAAGPSVFLFPPKPKDTLMISRTPEVTCVVVDVSHEDPEVKFNWYVDGVEVHNAKTKPREEQYNSTYRVVSVLTVLHQDWLNGKEYKCKVSNKALAAPIEKTISKAKGQPREPQVYTLPPSREEMTKNQVSLTCLVKGFYPSDIAVEWESNGQPENNYKTTPPVLDSDGSFFLYSKLTVDKSRWQQGNVFSCSVMHEALHNHYTQKSLSLSPGKGGGGSEVQLLESGGGLVQPGGSLRLSCAASGRTLSAEDMGWVRQAPGKGLEWVSAILDFGGSTYYAESVKGRFTISRDNAKNTLYLQMSSLRAEDTAVYYCARVVYHAGGGVTFDYWGQGTLVTVSS light: DIQMTQSPSSLSASVGDRVTITCRASENQYGYLAWYQQKPGKVPKLLIYNYKNLVEGVPSRFSGSGSGTDFTLTISSLQPEDVATYYCQHHLGTPYTFGQGTKVEIKRTVAAPSVFIFPPSDEQLKSGTASVVCLLNNFYPREAKVQWKVDNALQSGNSQESVTEQDSKDSTYSLSSTLTLSKADYEKHKVYACEVTHQGLSSPVTKSFNRGEC	–	232 nM	0.0105 s⁻¹	45200 M⁻¹ s⁻¹	–	~2 µg/mL

Next, values leading:

binding result [1]	Kd (human CD137 ECD-mIgG2a)	koff (human CD137 ECD-mIgG2a)	kon (human CD137 ECD-mIgG2a)	Functional assay EC50 (ug/ml), in vitro CD137 activation (PBMC cytokine release) [2]	EC50 (read off the curve) [1]	Binder
binds	586 nM	0.00455 s⁻¹	7770 M⁻¹ s⁻¹	–	–	A-CD137×CEA-M1 (bispecific antibody, human IgG1, kappa) heavy: QVQLVQSGAEVKKPGASVKVSCKASGYIFTSYYLHWVRQAPGQGLEWIGYINPQTGKTSYAQKFQGRVTMTRDTSTSTVYMELSSLRSEDTAVYYCAREYGNYNYPLDYWGQGTLVTVSSASTKGPSVFPLAPSSKSTSGGTAALGCLVKDYFPEPVTVSWNSGALTSGVHTFPAVLQSSGLYSLSSVVTVPSSSLGTQTYICNVNHKPSNTKVDKKVEPKSCDKTHTCPPCPAPPAAGPSVFLFPPKPKDTLMISRTPEVTCVVVDVSHEDPEVKFNWYVDGVEVHNAKTKPREEQYNSTYRVVSVLTVLHQDWLNGKEYKCKVSNKALAAPIEKTISKAKGQPREPQVYTLPPSREEMTKNQVSLTCLVKGFYPSDIAVEWESNGQPENNYKTTPPVLDSDGSFFLYSKLTVDKSRWQQGNVFSCSVMHEALHNHYTQKSLSLSPGKGGGGSEVQLLESGGGLVQPGGSLRLSCAASGFTLSAEDMGWVRQAPGKGLEWVSAILDFGGSTYYAESVKGRFTISRDNAKNTLYLQMSSLRAEDTAVYYCARVVYHAGGGVTFDYWGQGTLVTVSS light: DIQMTQSPSSLSASVGDRVTITCRASENQYGYLAWYQQKPGKVPKLLIYNYKNLVEGVPSRFSGSGSGTDFTLTISSLQPEDVATYYCQHHLGTPYTFGQGTKVEIKRTVAAPSVFIFPPSDEQLKSGTASVVCLLNNFYPREAKVQWKVDNALQSGNSQESVTEQDSKDSTYSLSSTLTLSKADYEKHKVYACEVTHQGLSSPVTKSFNRGEC
–	–	–	–	25.1 µg/mL	–	BE-942 (ZW 1+1) (bispecific antibody, human IgG1, L234A L235A) heavy 1: QVQLVQSGAEVKKPGASVKVSCKASGYIFTSYYLHWVRQAPGQGLEWIGYINPQTGKTSYAQKFQGRVTMTRDTSTSTVYMELSSLRSEDTAVYYCAREYGNYNYPLDYWGQGTLVTVSSASTKGPSVFPLAPSSKSTSGGTAWLGCEVTDYFPEPVTVSWNSGALTSGVHTFPAVLESSGLYSLSSVVTVPSSSLGTQTYICNVNHKPSNTKVDKKVEPKSCDKTHTCPPCPAPEAAGGPSVFLFPPKPKDTLMISRTPEVTCVVVSVSHEDPEVKFNWYVDGVEVHNAKTKPREEQYNSTYRVVSVLTVLHQDWLNGKEYKCKVSNKALPAPIEKTISKAKGQPREPQVYVLPPSRDELTKNQVSLLCLVKGFYPSDIAVEWESNGQPENNYLTWPPVLDSDGSFFLYSKLTVDKSRWQQGNVFSCSVMHEALHNHYTQKSLSLSPGK light: DIQMTQSPSSLSASVGDRVTITCRASENQYGYLAWYQQKPGKVPKLLIYNYKNLVEGVPSRFSGSGSGTDFTLTISSLQPEDVATYYCQHHLGTPYTFGQGTKVEIKRTVAAPSVAIFPPSDERLKSGTASVVCVLNNFYPREAKVQWKVDNALQSGNSQESVTEQDSKDSTYSLSSRLTLSKADYEKHKVYACEVTHQGLSSPVTKSFNRGEC heavy 2: not shown
–	–	–	–	1.16 µg/mL	–	BE-755 (ZW1+2) (bispecific antibody, human IgG1, L234A L235A) heavy 1: QVQLVQSGAEVKKPGASVKVSCKASGYIFTSYYLHWVRQAPGQGLEWIGYINPQTGKTSYAQKFQGRVTMTRDTSTSTVYMELSSLRSEDTAVYYCAREYGNYNYPLDYWGQGTLVTVSSASTKGPSVFPLAPSSKSTSGGTAWLGCEVTDYFPEPVTVSWNSGALTSGVHTFPAVLESSGLYSLSSVVTVPSSSLGTQTYICNVNHKPSNTKVDKKVEPKSCDKTHTCPPCPAPEAAGGPSVFLFPPKPKDTLMISRTPEVTCVVVSVSHEDPEVKFNWYVDGVEVHNAKTKPREEQYNSTYRVVSVLTVLHQDWLNGKEYKCKVSNKALPAPIEKTISKAKGQPREPQVYVLPPSRDELTKNQVSLLCLVKGFYPSDIAVEWESNGQPENNYLTWPPVLDSDGSFFLYSKLTVDKSRWQQGNVFSCSVMHEALHNHYTQKSLSLSPGK light: DIQMTQSPSSLSASVGDRVTITCRASENQYGYLAWYQQKPGKVPKLLIYNYKNLVEGVPSRFSGSGSGTDFTLTISSLQPEDVATYYCQHHLGTPYTFGQGTKVEIKRTVAAPSVAIFPPSDERLKSGTASVVCVLNNFYPREAKVQWKVDNALQSGNSQESVTEQDSKDSTYSLSSRLTLSKADYEKHKVYACEVTHQGLSSPVTKSFNRGEC heavy 2: not shown
binds	194 nM	0.0247 s⁻¹	127000 M⁻¹ s⁻¹	–	–	A-CD137×CEA-M4 (bispecific antibody, human IgG1, kappa) heavy: QVQLVQSGAEVKKPGASVKVSCKASGYIFTSYYLHWVRQAPGQGLEWIGYINPQTGKTSYAQKFQGRVTMTRDTSTSTVYMELSSLRSEDTAVYYCAREYGNYNYPLDYWGQGTLVTVSSASTKGPSVFPLAPSSKSTSGGTAALGCLVKDYFPEPVTVSWNSGALTSGVHTFPAVLQSSGLYSLSSVVTVPSSSLGTQTYICNVNHKPSNTKVDKKVEPKSCDKTHTCPPCPAPPAAGPSVFLFPPKPKDTLMISRTPEVTCVVVDVSHEDPEVKFNWYVDGVEVHNAKTKPREEQYNSTYRVVSVLTVLHQDWLNGKEYKCKVSNKALAAPIEKTISKAKGQPREPQVYTLPPSREEMTKNQVSLTCLVKGFYPSDIAVEWESNGQPENNYKTTPPVLDSDGSFFLYSKLTVDKSRWQQGNVFSCSVMHEALHNHYTQKSLSLSPGKGGGGSEVQLLESGGGLVQPGGSLRLSCAASGRTLSAEDVGWVRQAPGKGLEWVSAILDFGGSTYYAESVKGRFTISRDNAKNTLYLQMSSLRAEDTAVYYCARVVYHAGGGVTFDYWGQGTLVTVSS light: DIQMTQSPSSLSASVGDRVTITCRASENQYGYLAWYQQKPGKVPKLLIYNYKNLVEGVPSRFSGSGSGTDFTLTISSLQPEDVATYYCQHHLGTPYTFGQGTKVEIKRTVAAPSVFIFPPSDEQLKSGTASVVCLLNNFYPREAKVQWKVDNALQSGNSQESVTEQDSKDSTYSLSSTLTLSKADYEKHKVYACEVTHQGLSSPVTKSFNRGEC
